Laboratory results as given in US20210347908A1 (ELPISCIENCE SUZHOU BIOPHARMA, published 2021).
Substitutions are numbered along the chain they refer to.

B1: Antibody 001 (hybridoma antibody) (antibody, V domains shown)
VH: EVKLEESGGGLVQPGGSMKLSCVASGFTFRNYWMNWVRQSPERGLEWIAEISLKSNTYATHYAESVKGRFAISRDGSKSSFYLQMNDLRAEDTGIYYCTTFTKVVADWHLDVWGAGTTVTVSS
VL: DVLMTQTPLSLPVSLGDQASISCRSSQNIVHSNGNTYLEWYLQKPGQSPKLLIYKVSNRFSGVPDRFSGSGSGTDFTLRISRVEAEDLGVYYCFQGSHVPFTFGSGTKLEIK
notes: mouse hybridoma antibody
B2: Antibody 002 (hybridoma antibody) (antibody, V domains shown)
VH: B1 VH with K19I, S52T, G76D, A90P
VL: B1 VL with V56I, K112Q
notes: mouse hybridoma antibody
B3: Antibody 032 (hybridoma antibody) (antibody, V domains shown)
VH: B1 VH with K3R, A24V, S52T, G76D, A90P
VL: B1 VL with S14N
notes: mouse hybridoma antibody
B4: reference antibody HEFLB (antibody, V domains shown)
VH: EVQLVQSGAEVKKPGESLRISCKASGYSFTSYWVHWVRQMPGKGLEWMGNIDPSDSDTHYSPSFQGHVTLSVDKSISTAYLQLSSLKASDTAMYYCVRGGTGTLAYFAYWGQGTLVTVSS
VL: DVVMTQSPLSLPVTLGQPASISCRSSQSLVHSYGNTYLYWFQQRPGQSPRLLIYRVSNRFSGVPDRFSGSGSGTDFTLKISRVEAEDVGVYYCFQGTHVPYTFGGGTKVEIK
B5: Antibody 035 (hybridoma antibody) (antibody, V domains shown)
VH: QIQLVQSGPELRKPGETVKISCKASGYSFTNYAMNWVKQAPGKVLKWMGFINTYTGEPTYADDFKGRFAFSLETSASTAYLQINNLKNEDTATYFCTRTRGYYDFDGGAFDYWGQGTSLTVSS
VL: DIVMTQSQKFMSTSIGDRVSVTCKASQNVGTHLAWYQQKPGQSPKALIFSASYRYIGVPDRFTGSGSGTDFTLTITNVQSEDLAEYFCQQYNTYPLTFGAGTKLELK
notes: mouse hybridoma antibody
B6: Antibody 074 (hybridoma antibody) (antibody, V domains shown)
VH: QVQLQQPRAELVKPGASVMLSCKASGYTFSSYWIHWVRQGPGQGLEWIGLIHPNSGNTDCSETFKNKATLTVDTSSSTAYMQLSSLASEDSAVYYCARDGASYDWFVHWGQGTLVTVSA
VL: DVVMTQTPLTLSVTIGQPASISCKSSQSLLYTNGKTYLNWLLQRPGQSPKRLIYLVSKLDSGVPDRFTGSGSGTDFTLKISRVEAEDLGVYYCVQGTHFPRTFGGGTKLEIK
notes: mouse hybridoma antibody
B7: Antibody 022 (hybridoma antibody) (antibody, V domains shown)
VH: QIQLVQSGPELKKPGETVKISCKASGYTFTDYAMHWVKQAPGKGLKWMGWKNTETGESTYAEDFKGRFAFFLETSASTAYLQINNVKNEDTATYFCARGGYGSNYVMDYWGQGTSVIVSS
VL: DIQMTQSSSSFSVSLGDRVTITCKASEDIYNRLAWYQQKPGNAPRLLISGATSLETGVPSRFSGSGSGKDYTLSITSLQTEDVATYYCQQYWNSPRTFGGGTKLEIK
notes: mouse hybridoma antibody
B8: Antibody 050 (hybridoma antibody) (antibody, V domains shown)
VH: QIQLVQSGPELKKPGETVKISCKASGYTFTHYSMHWVKQAPGKGLKWMGWINTETAEPTYVDDFKGRFAFSLEASASTAFFQINNLKNEDTATYFCARGGLRQGDYWGQGTTLTVSS
VL: QIVLTQSPPIMSASPGEKVTLTCSATSSVSASYLYWFQQKPGSSPKLWIYSTSNLASGVPARFSGSGSGTSYSLTISNMEPADAASYFCHQWSSYPYTFGGGTKLEIK
notes: mouse hybridoma antibody
B9: Antibody 060 (hybridoma antibody) (antibody, V domains shown)
VH: QVQLKESGPGLVAPSESLSITCTVSGFSLTNYDISWIRQSPGKGLEWLGVIWTGGDTNFNSAFMSRLSISKDKSKSQVFLKLNSLQTDDTAIYYCVRVQYFGGSYGPMDYWGQGISVTVSS
VL: DIQMTQASSYLSVSLGGRVTITCEASDHINDWLAWYQQTPGNAPRLLISGATSLETGVPSRFSGSGSGKDYTLSITSLQTEDIATYYCQQYWNTPLTFGAGTRLELK
notes: mouse hybridoma antibody
B10: chimeric antibody 001c (antibody, V domains shown)
VH: B1 VH
VL: B1 VL
B11: chimeric antibody 035c (antibody, V domains shown)
VH: B5 VH
VL: B5 VL
B12: chimeric antibody 002c (antibody, V domains shown)
VH: B1 VH with K19I, S52T, G76D, A90P
VL: B1 VL with V56I, K112Q
B13: chimeric antibody 060c (antibody, V domains shown)
VH: B9 VH
VL: B9 VL

target: T1, Fc tagged human SIRPα v1 ECD recombinant protein (human, UniProt P78324 31-370); assay: ELISA
T1 construct: range 1-370; cloned range M1-R370 includes the signal peptide; also called hSIRPα V1; not shown: human IgG Fc region (hFc) of the pCPC vector
T1 sequence (P78324 31-370 limits assumed): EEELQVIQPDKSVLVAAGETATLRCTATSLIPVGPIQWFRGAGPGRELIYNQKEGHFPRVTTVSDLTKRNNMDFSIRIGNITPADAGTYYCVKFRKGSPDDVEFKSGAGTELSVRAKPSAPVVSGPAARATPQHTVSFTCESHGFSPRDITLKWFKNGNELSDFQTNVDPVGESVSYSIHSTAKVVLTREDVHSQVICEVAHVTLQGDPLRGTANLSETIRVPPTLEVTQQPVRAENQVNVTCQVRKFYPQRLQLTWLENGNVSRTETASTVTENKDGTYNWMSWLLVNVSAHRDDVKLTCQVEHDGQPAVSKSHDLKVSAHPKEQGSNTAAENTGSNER
Procedure: (§1) Binding specificity of the purified hybridoma antibodies against SIRP family members was detected by ELISA assay using recombinant proteins of Fc tagged human SIRPα v1 ECD, human SIRPα v2 ECD, human SIRPβ ECD and human SIRPγ ECD. Briefly the antibodies were incubated with ELISA microplate coated antigens at 37° C. for 1 hour. After washing, horseradish peroxidase (HRP) labeled anti-mouse or anti-human IgG 2nd Ab (Sigma) was added and incubated at 37° C. for 1 hour. Then, 100 μl/well of TMB solution (Biotechnology) was added. After incubation for 15 minutes at room temperature, the reaction was stopped by the addition of 50 μl of 1N HCl. OD 450 nm was read and EC₅₀ was calculated. Other than 060 and HEFLB, all of the antibodies as tested can bind with both human SIRPα v1 and SIRPα v2. 060 and HEFLB can bind with human SIRPα v1 but not v2. Other than 055, all of the antibodies as tested can bind with human SIRPβ. In comparison with other known anti-SIRPα antibodies, only 022, 035 and 050 can bind with human SIRPγ weakly.

Binder	EC50
B1	0.07 nM
B2	0.11 nM
B3	0.03 nM
B4	0.17 nM
B5	0.03 nM
B6	0.02 nM
B7	0.04 nM
B8	0.08 nM
B9	0.03 nM

target: T2, Fc tagged human SIRPα v2 ECD recombinant protein (human); assay: ELISA
T2 construct: range 1-369; cloned range M1-R369 includes the signal peptide; also called hSIRPα V2
Procedure: as §1

Binder	EC50
B1	0.07 nM
B2	0.1 nM
B3	0.04 nM
B5	0.04 nM
B6	0.02 nM
B7	0.04 nM
B8	0.08 nM

target: T3, Fc tagged human SIRPβ ECD recombinant protein (human, UniProt O00241 30-371); assay: ELISA
T3 construct: range 1-371; cloned range includes the signal peptide; also called hSIRPβ; not shown: human IgG Fc region (hFc) of the pCPC vector
T3 sequence (O00241 30-371 limits assumed, form in doubt): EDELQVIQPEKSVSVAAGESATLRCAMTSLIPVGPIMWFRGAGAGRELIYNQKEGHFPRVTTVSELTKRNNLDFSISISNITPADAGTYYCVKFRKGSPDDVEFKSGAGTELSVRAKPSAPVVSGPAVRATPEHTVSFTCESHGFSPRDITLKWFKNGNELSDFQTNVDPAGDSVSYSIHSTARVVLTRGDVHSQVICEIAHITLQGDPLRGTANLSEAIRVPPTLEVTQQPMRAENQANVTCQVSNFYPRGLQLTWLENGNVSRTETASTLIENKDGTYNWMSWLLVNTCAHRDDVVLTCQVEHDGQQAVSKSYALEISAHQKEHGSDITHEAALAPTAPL
Procedure: as §1

Binder	EC50
B1	0.12 nM
B2	0.16 nM
B3	0.02 nM
B4	0.17 nM
B5	0.02 nM
B6	0.02 nM
B7	0.03 nM
B8	0.11 nM
B9	0.04 nM

target: T2, Fc tagged human SIRPα v2 ECD …; assay: ELISA; remark: another data set of the same source
Summary of the method: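 Coated antigen + antibody, 37° C. 1 h; wash; HRP anti-mouse or anti-human IgG, 37° C. 1 h; TMB 15 min RT; stop 1N HCl; OD450; EC₅₀.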

Binder	EC50
B10	0.09 nM
B11	0.08 nM
B12	0.06 nM

target: T4, biotin labeled soluble human SIRPα v1 ECD recombinant protein (human, UniProt P78324 31-373, biotin labeled); assay: competitive ELISA; competitor 032
T4 construct: extracellular domain
T4 sequence (P78324 31-373): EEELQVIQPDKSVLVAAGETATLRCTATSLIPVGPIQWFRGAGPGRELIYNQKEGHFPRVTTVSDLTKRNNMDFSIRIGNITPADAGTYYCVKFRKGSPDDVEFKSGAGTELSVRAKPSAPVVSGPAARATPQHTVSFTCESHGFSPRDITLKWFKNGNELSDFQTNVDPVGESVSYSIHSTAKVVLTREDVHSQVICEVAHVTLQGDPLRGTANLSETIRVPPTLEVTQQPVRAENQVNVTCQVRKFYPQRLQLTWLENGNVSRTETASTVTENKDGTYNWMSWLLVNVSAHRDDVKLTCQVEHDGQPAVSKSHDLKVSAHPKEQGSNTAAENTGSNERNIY
Procedure: (§2) Competitive ELISA assay was used for epitope binning of 9 functional antibodies. Briefly excessive competitor antibody and biotin labeled soluble human SIRPα v1 ECD recombinant protein were co-incubated with ELISA microplate coated antibody. After washing, HRP-SA was added and incubated at 37° C. for 1 hour. Then, […] of TMB solution (Biotechnology) was added. After incubation for 15 minutes at room temperature, the reaction was stopped by the addition of […] of 1N HCl. OD 450 nm was read. Competition ratio was calculated. The antibodies that can compete each other for binding to SIRPα have the similar binding epitope.

Binder	% Competition
B1	96%
B2	92%
B3	94%
B4	91%
B5	89%
B6	34%
B7	4%
B8	8%
B9	4%

target: T4, biotin labeled soluble human SIRPα v1 …; assay: competitive ELISA; competitor 060
Procedure: as §2

Binder	% Competition
B1	19%
B2	-10%
B3	7%
B4	7%
B5	-1%
B6	-1%
B7	26%
B8	17%
B9	93%

target: T4, biotin labeled soluble human SIRPα v1 …; assay: competitive ELISA; competitor 074
Procedure: as §2

Binder	% Competition
B1	5%
B2	-10%
B3	6%
B4	2%
B5	6%
B6	92%
B7	-1%
B8	2%
B9	-1%

target: T4, biotin labeled soluble human SIRPα v1 …; assay: competitive ELISA; competitor HEFLB
Procedure: as §2

Binder	% Competition
B1	36%
B2	7%
B3	14%
B4	88%
B5	2%
B6	-14%
B7	1%
B8	-14%
B9	-3%

target: T5, chimeric SIRPα of B-hSIRPA mice (IgV domain of human SIRPα); IgC1/C2, transmembrane and intracellular domains … (human; mouse, UniProt P78324 31-149; P97797 151-513, limits assumed); assay: FACS on spleen cells of B-hSIRPA mice, anti-human IgG secondary antibody, gated on mCD11b/mF4/80 double positive monocytes
T5 construct: domain: IgV domain;domain: IgC1/C2, transmembrane and intracellular domains; whole, on cells (mCD11b+ mF4/80+ spleen monocytes); also called B-hSIRPA mice derived primary monocytes
T5 sequence (P78324 other isoform, or with tags, fused parts or gaps mutant limits assumed): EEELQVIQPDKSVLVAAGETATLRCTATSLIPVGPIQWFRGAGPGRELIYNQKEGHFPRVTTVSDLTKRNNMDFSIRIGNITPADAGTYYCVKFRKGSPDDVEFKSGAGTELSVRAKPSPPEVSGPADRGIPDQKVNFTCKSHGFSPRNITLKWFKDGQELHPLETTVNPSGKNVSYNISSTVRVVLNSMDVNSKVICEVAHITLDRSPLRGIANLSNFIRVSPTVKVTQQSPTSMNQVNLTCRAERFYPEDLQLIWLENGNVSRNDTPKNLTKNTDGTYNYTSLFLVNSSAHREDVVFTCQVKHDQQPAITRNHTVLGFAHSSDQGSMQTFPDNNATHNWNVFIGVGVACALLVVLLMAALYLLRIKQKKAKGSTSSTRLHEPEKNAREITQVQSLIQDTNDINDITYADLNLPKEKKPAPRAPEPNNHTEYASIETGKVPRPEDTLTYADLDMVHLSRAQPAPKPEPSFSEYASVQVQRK
Procedure: The humanized mice express a chimeric SIRPα, comprised of IgV domain of human SIRPα and IgC1/C2, transmembrane and intracellular domains of mouse SIRPα. Briefly spleen cells of B-hSIRPA mice were harvested and incubated with anti-SIRPα chimeric antibodies at 4° C. for 1 hour. After washing, fluorescence labeled anti-human IgG 2nd antibody (Life Technologies) was added and incubated at 4° C. for 1 hour. […] Anti-SIRPα positive staining population in mCD11b and mF4/80 double positive subset was calculated.

Binder	Positive Staining Population (% in mCD11b, mF4/80 double positive subset)
B10	91%
B11	91.3%
B12	88.9%
B13	86%
